Consider one substance from PMC11481066.

A word on the Kd: it is a measure of binding affinity in units of concentration.

This experiment deals with SARS-CoV-2 spike protein receptor binding domain, Delta variant subvariant Δ1 (B.1.617.2) (UniProt P0DTC2). The experiment can be described thus: BLI. The following applies: parent: 168.4.

For the substance ab8 nanobody, wild type E127W, the Kd came to 0.59 nM.
